According to IntAct's records for PubMed 22908257:

Molecular target: ABI2, O04719-1
Sequence (O04719 whole entry): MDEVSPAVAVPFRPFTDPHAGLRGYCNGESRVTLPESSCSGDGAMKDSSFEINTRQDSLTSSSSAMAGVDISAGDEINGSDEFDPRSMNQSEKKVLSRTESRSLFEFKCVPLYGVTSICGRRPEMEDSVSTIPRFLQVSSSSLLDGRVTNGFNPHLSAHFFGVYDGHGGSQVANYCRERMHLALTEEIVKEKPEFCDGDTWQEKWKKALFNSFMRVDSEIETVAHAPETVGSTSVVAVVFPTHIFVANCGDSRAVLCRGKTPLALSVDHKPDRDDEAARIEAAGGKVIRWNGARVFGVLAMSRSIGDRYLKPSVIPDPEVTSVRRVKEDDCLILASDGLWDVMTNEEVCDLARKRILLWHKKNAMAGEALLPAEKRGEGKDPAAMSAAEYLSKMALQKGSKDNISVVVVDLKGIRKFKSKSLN

Rac-like GTP-binding protein ARAC10 (Arabidopsis thaliana (Mouse-ear cress)), O82481 D123A, sequence (O82481 whole entry D123A): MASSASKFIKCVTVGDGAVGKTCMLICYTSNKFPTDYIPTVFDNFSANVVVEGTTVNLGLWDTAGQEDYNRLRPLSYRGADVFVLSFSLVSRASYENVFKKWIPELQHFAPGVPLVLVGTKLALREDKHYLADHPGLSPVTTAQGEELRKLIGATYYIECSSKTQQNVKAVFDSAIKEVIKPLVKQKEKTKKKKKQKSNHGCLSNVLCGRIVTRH

Rac-like GTP-binding protein ARAC10 (Arabidopsis thaliana (Mouse-ear cress)), O82481 D123A
effect of a mutation on the interaction: disrupting interaction strength
